# Patent US9993566B2, “SEZ6 modulators and methods of use” (AbbVie Stemcentrx LLC, priority 2013, dated 2018)
# B1: SC17.46 (antibody, V domains shown)
# VH: QVQLQQPGAELVKPGASMKLSCKASGYTFTSYWINWVKQRPGQGLEWIGNIFPDTTTTNYNEKFKSKATLTVDTSSSTAYMQLSSLTSDDSAVYYCAREYYDGTYDAMDYWGQGTSVTV
# VL: SFVMTQTPKFLLVSAGDRVTITCKASQSVNNDVAWYQQKPGQSPKLLIYYASNRYTGVPDRFTGSGYGTDFTFTISTVQAEDLAVYFCQQDYSSPRTFGGGTKLEIK
# modifications: Murine SC17.46 VH; Murine SC17.46 VL
# B2: SC17.28-ADC2: SC17.28 antibody conjugated to PBD dimer cytotoxic agent (and linker) ADC2 (conjugate)
# VL: DILLTQSPAILSVSPGEGVSFSCRASQSIGTSIHWYQQRTNGSPRLLIKYASESISGIPSRFSGSGSGTDFTLRINSLESEDIADYYCQQSNSWPLTFGAGTKLELK
# VH: QVHLPQSRPELVKPGASVKISCKASGYGFTRSYIHWVKQRPGQGLEWIGYISSGSGGTTYNQKFKGKASLTADNPSSTAYMHLSSLTSEDSAIYFCARGGVRYFDVWGAGTTVTVSS
# B3: SC17.24-ADC2: SC17.24 antibody conjugated to PBD dimer cytotoxic agent (and linker) ADC2 (conjugate)
# VL: DIVMSQSPSSLAVSVGEKVTMSCKSSQSLLYSSNQKSYLAWYQQKPGQSPKLLIYWASTRESGVPDRFTGSGSGTDFTLTISSVQAEDLAVYYCKQSYNLRTFGGGTKLEIK
# VH: QVQLQQSDAELVKPGASVKISCKVSGYTFTDHTIHWMKQRPEQGLEWIGYIYPRDGSTKYNEEFKGKATLTADKSSSTAYMQLNSLTSEDSAVYFCARSYSNYFDYWGQGTTLTVSS
# B4: SC17.6: murine anti-SEZ6 antibody; SC17.6 is duplicate of SC17.16 (antibody, V domains shown)
# VH: EVQLQQSGPELMKPGASVKMSCKASGYTFTDYNMYWVKQNQGKSLEWIGEINPNNGGTAYNQKFRGKATLTVDKSSSTAYMELRSLTSEDSAVYYCARYDKGFDYWGQGTTLTVSS
# VL: DIQMTQSPASLSVSVGETVTITCRASANINSNLVWYQQKQGKSPQLLVYAATNLADGVPSRFSGSGSGTQYSLKINSLQSEDFGNYYCQHFWGTPRTFGGGTKLEIK
# modifications: Murine SC17.16 VH; Murine SC17.16 VL
# B5: SC17.19: murine anti-SEZ6 antibody (antibody, V domains shown)
# VH: DVQLQESGPGLVKPSQSLSVTCTVTGYSITSSYTWNWIRQFPGNKLEWMGYIHYSGSTNYNPSLRSRISITRDTSKNQFFLQLNSVTTEDTATYYCARSRYYYDAYGFAYWGQGTLVTVSA
# VL: DIVLTQSPASLAVSLGQRAAISCKPSQSVDYDGDSYMNWYQQKPGQPPKLLIYAASNLESGIPARFSGSGSGTDFTLNIHPVEEEDAATYYCHQINDDPWTFGGGTKLK
# modifications: Murine SC17.19 VH; Murine SC17.19 VL
# notes: murine anti-SEZ6 antibody
# B6: SC17.140: murine anti-SEZ6 antibody (antibody, V domains shown)
# VH: EVQLQQSGPELMKPGASVKMSCKASGYTFTDYNMHWVKQNQGKSLEWIGEINPNTGGTGYNQKFKGKATLTVDKFSSTAFIELRSLTSEDSAIYYCTRGGYDHYWYFDVWGAGTTVTVSS
# VL: QIVLTQSPAIMSASPGEKVTMTCSASSSVSYMHWYQQKSGTSPKRWIYDTSKLASGVPARFSGSGSGTSYSLTISSMEAEDAATYYCQQWSSTPPTFGSGTKLEIK
# modifications: Murine SC17.140 VH; Murine SC17.140 VL
# notes: murine anti-SEZ6 antibody
# B7: SC17.34-ADC2: SC17.34 antibody conjugated to PBD dimer cytotoxic agent (and linker) ADC2 (conjugate)
# VL: DIKMTQSPSSMYASLGERVTITCKASQDINSYLSWFQQKPGKSPKTLIYRANRLVDGVPSRFSGSGSGQDYSLTISSLEYEDMGIYYCLQYDEFPPTFGGGTKLEIK
# VH: EVQLQQSGPELVKPGSSVKISCKASGYTFTDYNMDWVKQSHGKRLEWIGYIYPDNGGAGYNQKFKGKATLTVDKSSSTAYMELRSLTSEDSAVYYCSRSITTAWFAYWGQGTLVTVSA
# Assays:
# cynomolgus SEZ6 = experiment: Flow cytometry cross reactivity, yeast displaying extracellular domain of cynomolgus SEZ6; format: binding; conditions: 5 μg/mL antibody
# Description: (§1) In this regard flow cytometry was performed using a FACSCanto II as per the manufacturer's instructions in order to confirm that selected SC17 antibody modulators can immunospecifically associate with human SEZ6 and to determine whether the same modulators cross-react with cynomolgus, rat and/or murine SEZ6 in addition to SEZ6L and SEZ6L2. More particularly modulators were tested for cross reactivity to murine SEZ6 and rat SEZ6 by flow cytometry against Neuro2a (ATCC Cat # CCL131), and RIN-m5F (ATCC cat # CRL-11605) cell lines which express mouse SEZ6 and rat SEZ6, respectively. For examining cross reactivity to cynomolgus SEZ6, yeast displaying the extracellular domain of cynomolgus SEZ6 (Boder et al, 1997) were used for flow cytometry analysis.
# (§2) Briefly 1×10^5 cells per well of Neuro2a, RIN-5mF, or yeast displaying cynomolgus SEZ6 cells were incubated for 30 minutes with 50 μL PBS (2% FCS) buffer with 5 μg/mL antibody. Cells were washed twice with the same buffer and then incubated with 50 μL per sample DyLight 649 labeled goat-anti-mouse IgG, Fc fragment specific secondary diluted 1:200 in PBS buffer. After incubating for 15 minutes cells were washed twice with the PBS buffer and re-suspended in the same with DAPI for flow cytometry analysis of Neuro2a and Rin-m5F or buffer without DAPI for flow cytometric analysis of yeast cells with cSEZ6.
# SEZ6 ECD = molecular target: T1, SEZ6 ECD (Homo sapiens, UniProt Q53EL9); experiment: Fine epitope mapping (phage display peptide library or yeast-displayed SEZ6 ECD mutants); format: binding; conditions: epitope conformational (discontinuous) or linear
# T1 construct: SEZ6 extracellular domain (amino acids 1-904); expressed in transfected cells; host or cells: yeast (surface display, Cochran et al. protocol)
# LU50 LCNEC tumor = experiment: NTX tumor growth in immunodeficient mice, murine ADCs; format: in vivo, human; conditions: three injections of 1 mg/kg intraperitoneally over seven days, NOD/SCID mice
# Description: Patient-derived NTX tumors were grown subcutaneously in the flanks of female NOD/SCID recipient mice using art-recognized techniques. Tumor volumes and mouse weights were monitored twice per week. When tumor volumes reached 150-250 mm^3, mice were randomly assigned to treatment groups and injected intraperitoneally with SC17-ADC1 or a control MsIgG1-ADC1. Mice were given three injections of 1 mg/kg (indicated by the vertical lines in FIG. 17B) over a period of seven days. Following treatment, tumor volumes and mouse weights were monitored until tumors exceeded 800 mm^3 or mice became sick.
# rat SEZ6 = experiment: Flow cytometry cross reactivity, RIN-m5F cells; format: binding; conditions: 5 μg/mL antibody
# Sequence of rat SEZ6 (as listed by the source): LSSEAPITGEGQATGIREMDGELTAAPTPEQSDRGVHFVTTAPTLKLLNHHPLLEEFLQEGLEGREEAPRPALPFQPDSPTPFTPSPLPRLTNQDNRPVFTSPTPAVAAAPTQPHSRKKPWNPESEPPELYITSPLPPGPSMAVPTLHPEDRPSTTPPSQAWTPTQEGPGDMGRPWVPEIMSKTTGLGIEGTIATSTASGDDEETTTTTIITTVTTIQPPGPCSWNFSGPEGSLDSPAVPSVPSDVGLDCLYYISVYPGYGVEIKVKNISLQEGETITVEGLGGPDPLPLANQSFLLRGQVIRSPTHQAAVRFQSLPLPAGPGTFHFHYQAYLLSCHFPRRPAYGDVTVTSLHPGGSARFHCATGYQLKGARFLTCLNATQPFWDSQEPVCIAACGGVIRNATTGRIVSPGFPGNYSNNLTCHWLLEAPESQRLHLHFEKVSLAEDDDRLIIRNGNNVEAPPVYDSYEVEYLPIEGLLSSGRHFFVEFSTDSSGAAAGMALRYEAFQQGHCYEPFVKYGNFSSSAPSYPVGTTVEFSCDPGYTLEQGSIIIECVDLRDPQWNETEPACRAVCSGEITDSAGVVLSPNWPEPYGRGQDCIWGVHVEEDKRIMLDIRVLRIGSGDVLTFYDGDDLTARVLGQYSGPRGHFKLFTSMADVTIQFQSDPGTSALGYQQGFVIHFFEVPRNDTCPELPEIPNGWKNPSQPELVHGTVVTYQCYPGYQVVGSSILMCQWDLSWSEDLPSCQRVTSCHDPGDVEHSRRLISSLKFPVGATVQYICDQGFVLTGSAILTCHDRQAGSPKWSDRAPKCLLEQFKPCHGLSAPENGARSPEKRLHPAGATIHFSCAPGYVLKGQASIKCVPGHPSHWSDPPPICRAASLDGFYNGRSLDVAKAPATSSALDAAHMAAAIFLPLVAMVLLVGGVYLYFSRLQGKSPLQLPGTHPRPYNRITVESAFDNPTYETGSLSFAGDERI
# Description: as §1, §2
# [1] = tested on: OV26, a NET ovarian tumor; experiment: ADC cytotoxicity in NTX tumor cells in vitro; format: cell-based, human; conditions: compared to control msIgG1
# Description: (§3) NTX tumors were dissociated into a single cell suspension and plated on Primaria™ plates (BD Biosciences) in growth factor supplemented serum free media as is known in the art. After culturing the cells for one day at 37° C./5% CO2/5% O2, they were treated with a control (IgG1, IgG2a or IgG2b) or a murine SEZ6 modulator and Fab-saporin as described in Example 14. After seven days, the modulator-mediated saporin cytotoxicity was assessed by quantifying the remaining number of live cells using Cell Titer Glo.
# (§4) Mouse lineage-depleted NTX tumor cells were exposed to anti-SEZ6 ADCs or a mouse isotype control (msIgG1) using the same method as described in Example 15, except that Fab-saporin was not added.
# LU64, a SCLC tumor = experiment: ADC cytotoxicity in NTX tumor cells in vitro; format: cell-based, human; conditions: compared to control msIgG1
# Description: as §3, §4
# LU37, a NSCLC tumor = experiment: Fab-saporin cytotoxicity in NTX tumor cells; format: cell-based, human; conditions: antibody with Fab-saporin, seven days
# Description: (§5) To corroborate the results of Example 14 and determine whether SEZ6 modulators can mediate toxin internalization and cell killing of human tumor cells (as opposed to engineered cells), mouse lineage-depleted NTX cells were plated and subsequently exposed to anti-SEZ6 antibodies and Fab-saporin.
# as §3
# LU80, a SCLC tumor = experiment: Fab-saporin cytotoxicity in NTX tumor cells; format: cell-based, human; conditions: antibody with Fab-saporin, seven days
# Description: as §5, §3
# LU100, a SCLC tumor = experiment: Fab-saporin cytotoxicity in NTX tumor cells; format: cell-based, human; conditions: 50 and 500 pM antibody with Fab-saporin, seven days
# Description: as §5, §3
# SEZ6L2 = molecular target: T2, SEZ6L2 (Homo sapiens, UniProt Q6UXD5, INS830AYEELLDNRKLEV); experiment: ELISA cross reactivity to family member SEZ6L2; format: binding; parameters: key to binds SEZ6 family member SEZ6L2 (dagger): *: antibodies that bind SEZ6 family members SEZ6L and SEZ6L2 are designated with an asterisk and/or a dagger, respectively; †: antibodies that bind SEZ6 family members SEZ6L and SEZ6L2 are designated with an asterisk and/or a dagger, respectively; conditions: for cross reactivity with SEZ6L2: ELISA, antibody 1 μg/mL; for binds SEZ6 family member SEZ6L2 (dagger): mark in Table 5
# T2 construct: IgK signal peptide (N, cleaved yes); made in house; host or cells: HEK-293T or CHO-S
# T2 sequence (Q6UXD5 with tags, fused parts or gaps with the stated changes): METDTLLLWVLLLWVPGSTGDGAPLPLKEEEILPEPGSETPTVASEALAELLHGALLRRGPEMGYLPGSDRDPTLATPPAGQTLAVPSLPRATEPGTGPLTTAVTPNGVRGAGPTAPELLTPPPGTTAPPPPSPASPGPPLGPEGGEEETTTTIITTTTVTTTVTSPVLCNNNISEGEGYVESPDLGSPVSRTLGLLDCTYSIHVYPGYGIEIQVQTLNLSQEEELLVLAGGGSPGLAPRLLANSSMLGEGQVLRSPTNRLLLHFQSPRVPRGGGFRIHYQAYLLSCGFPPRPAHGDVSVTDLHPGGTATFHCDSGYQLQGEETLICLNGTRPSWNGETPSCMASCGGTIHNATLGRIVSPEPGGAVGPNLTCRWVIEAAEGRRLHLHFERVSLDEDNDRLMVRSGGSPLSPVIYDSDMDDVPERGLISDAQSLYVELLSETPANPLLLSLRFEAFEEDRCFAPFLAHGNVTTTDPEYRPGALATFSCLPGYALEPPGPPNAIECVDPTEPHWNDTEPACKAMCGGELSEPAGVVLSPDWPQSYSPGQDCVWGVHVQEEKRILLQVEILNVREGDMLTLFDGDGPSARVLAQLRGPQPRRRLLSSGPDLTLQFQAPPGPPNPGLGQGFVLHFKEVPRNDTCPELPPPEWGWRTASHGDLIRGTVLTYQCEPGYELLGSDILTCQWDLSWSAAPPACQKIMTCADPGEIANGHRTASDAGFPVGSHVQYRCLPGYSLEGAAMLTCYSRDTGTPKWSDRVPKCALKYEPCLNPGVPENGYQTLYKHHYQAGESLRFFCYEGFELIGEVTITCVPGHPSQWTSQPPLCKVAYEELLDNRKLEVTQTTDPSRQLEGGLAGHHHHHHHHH
# Description: To determine cross reactivity to family member proteins, SEZ6L and SEZ6L2, an ELISA-based assay was used. Plates were coated with SEZ6, SEZ6L, or SEZ6L2 proteins at 0.2 μg/mL in PBS overnight. After washing with PBS containing 0.05% (v/v) Tween 20 (PBST), the wells were blocked with 2% (w/v) BSA in PBS (PBSA), 100 μL/well for 1 hour at room temperature. Antibody was then added at 1 μg/mL in 100 μL PBSA for 1 hour at room temperature. After washing with PBST, 100 μL/well HRP-labeled goat anti-mouse IgG diluted 1:2,000 in PBSA for 1 hour at room temperature. The plates were washed and 100 μL/well of the TMB substrate solution (Thermo Scientific 34028) was added for 15 minutes at room temperature. After developing, an equal volume of 2M H2SO4 was added to stop substrate development and analyzed by spectrophotometer at OD 450. […] As discussed above, such pan-SEZ6 antibodies are compatible with the teachings herein and may be used in conjunction with the disclosed methods.
# mouse SEZ6 = molecular target: T3, mouse SEZ6 (Mus musculus, UniProt Q7TSK2); experiment: Flow cytometry cross reactivity, Neuro2a cells; format: binding; conditions: 5 μg/mL antibody
# T3 construct: Neuro2a (ATCC Cat # CCL131), and RIN-m5F (ATCC cat # CRL-11605) cell lines which express mouse SEZ6 and rat SEZ6; host or cells: Neuro2a
# T3 sequence (Q7TSK2 20-991): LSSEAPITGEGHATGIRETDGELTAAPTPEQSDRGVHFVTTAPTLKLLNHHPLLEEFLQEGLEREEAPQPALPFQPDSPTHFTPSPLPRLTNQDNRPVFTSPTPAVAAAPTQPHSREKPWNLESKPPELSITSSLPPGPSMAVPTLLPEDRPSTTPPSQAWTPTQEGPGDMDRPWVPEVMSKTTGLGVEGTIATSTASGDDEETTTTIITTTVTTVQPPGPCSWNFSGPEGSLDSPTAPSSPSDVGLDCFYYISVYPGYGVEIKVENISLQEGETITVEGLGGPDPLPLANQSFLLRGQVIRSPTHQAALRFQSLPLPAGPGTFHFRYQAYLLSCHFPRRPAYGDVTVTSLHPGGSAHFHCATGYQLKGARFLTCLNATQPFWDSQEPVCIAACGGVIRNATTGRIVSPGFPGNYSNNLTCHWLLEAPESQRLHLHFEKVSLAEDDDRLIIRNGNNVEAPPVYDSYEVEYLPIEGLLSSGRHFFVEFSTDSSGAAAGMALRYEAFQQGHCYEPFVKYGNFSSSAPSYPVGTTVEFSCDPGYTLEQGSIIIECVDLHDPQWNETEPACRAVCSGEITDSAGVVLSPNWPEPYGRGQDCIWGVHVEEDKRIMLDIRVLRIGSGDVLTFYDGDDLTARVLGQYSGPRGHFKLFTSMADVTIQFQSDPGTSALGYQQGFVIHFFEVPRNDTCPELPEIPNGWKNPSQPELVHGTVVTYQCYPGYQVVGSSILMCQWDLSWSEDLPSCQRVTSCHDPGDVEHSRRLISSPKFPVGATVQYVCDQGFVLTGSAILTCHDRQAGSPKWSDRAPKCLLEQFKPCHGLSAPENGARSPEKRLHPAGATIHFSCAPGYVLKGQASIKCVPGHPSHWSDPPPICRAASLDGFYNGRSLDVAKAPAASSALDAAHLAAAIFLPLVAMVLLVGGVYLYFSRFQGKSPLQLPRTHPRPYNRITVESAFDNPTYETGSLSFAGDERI
# Description: as §1, §2
# SEZ6 = molecular target: T4, SEZ6 (Homo sapiens, UniProt Q53EL9); experiment: Immunohistochemistry validation on FFPE cell pellets; format: binding; conditions: FFPE sections
# T4 construct: produce a cDNA fragment encoding the mature human SEZ6 protein; IgK signal peptide (N); T2A peptide (residue left after ribosomal skipping; GFP is a separate protein) (C); expressed in transfected cells; host or cells: HEK-293T (lentiviral transduction, pCDH-EF1-MCS-T2A-GFP)
# Description: Immunohistochemistry (IHC) was performed on PDX tumors to confirm that SEZ6 is expressed on the surface of certain PDX tumors; and in order to determine the location of the SEZ6 protein in the tumor architecture. IHC was performed on formalin fixed paraffin embedded (FFPE) tissue sections using an indirect detection method which included murine monoclonal primary antibody against SEZ6 (SC17.140), mouse specific biotin conjugated secondary antibodies, avidin/biotin complex coupled with horse radish peroxidase, and DAB detection (Nakene P K 1968; 16:557-60). […] Specificity was further confirmed by competing signal with a 5 molar excess of purified recombinant SEZ6 on HEK-293T cells overexpressing human SEZ6 and NTX tumors that were shown by IHC to express SEZ6 (data not shown).
molecule,measurement,setting,value
B1,cross reactivity to cynomolgus SEZ6,cynomolgus SEZ6,lack of cross reactivity
same,Discontinuous,SEZ6 ECD,Yes
same,"duration of tumor growth suppression, LU50",LU50 LCNEC tumor,35 days
same,cross reactivity to rat SEZ6,rat SEZ6,lack of cross reactivity
B2,"percent viable cells, OV26",[1],increased reduction in percent viable cells
same,"percent viable cells, LU64","LU64, a SCLC tumor",increased reduction in percent viable cells
B3,"percent viable cells, OV26",[1],increased reduction in percent viable cells
same,"percent viable cells, LU64","LU64, a SCLC tumor",increased reduction in percent viable cells
B4,"number of tumor cells, LU37","LU37, a NSCLC tumor",reduction in the number of tumor cells
same,"number of tumor cells, LU80","LU80, a SCLC tumor",reduction in the number of tumor cells
same,"number of tumor cells, LU100","LU100, a SCLC tumor",reduction of tumor cells
same,cross reactivity with SEZ6L2,SEZ6L2,cross-reactive
same,binds SEZ6 family member SEZ6L2 (dagger),SEZ6L2,"SC17.6^†, SC17.28^†, SC17.103, SC17.109, SC17.119,"
same,cross reactivity to rat SEZ6,rat SEZ6,cross reactive
same,cross reactivity to murine SEZ6,mouse SEZ6,cross reactive
B5,"number of tumor cells, LU100","LU100, a SCLC tumor",reduction of tumor cells
same,cross reactivity with SEZ6L2,SEZ6L2,cross-reactive
same,binds SEZ6 family member SEZ6L2 (dagger),SEZ6L2,"SC17.SC17, SC17.19^†, SC17.93, SC17.102, SC17.121,"
same,cross reactivity to rat SEZ6,rat SEZ6,cross reactive
same,cross reactivity to murine SEZ6,mouse SEZ6,cross reactive
B6,IHC staining of HEK-293T cell pellets overexpressing SEZ6 compared to naïve HEK-293T cell pellets,SEZ6,specific staining
same,Discontinuous,SEZ6 ECD,Yes
B7,"percent viable cells, OV26",[1],increased reduction in percent viable cells
same,"percent viable cells, LU64","LU64, a SCLC tumor",increased reduction in percent viable cells
